From the Human Domainome abundance scans (Beltran et al. 2025)
± gives the uncertainty stated by the source.

B1: Nanos homolog 2, residues 63 to 115; numbered along this chain, P60321 (parent)
chain: CNFCKHNGESRHVYSSHQLKTPDGVVVCPILRHYVCPVCGATGDQAHTLKYCP
B2: Transcription elongation regulator 1-like protein, residues 448 to 504; numbered along this chain, Q5VWI1 (parent)
chain: LPLEERVTHFRDMLLERGVSAFSTWEKELHKIVFDPRYLLLNSEERKQIFEQFVKTR

Variants of: B1
Assay: abundance fitness (aPCA) (normalised: wild type 0, dead -1); higher = more abundant; growth selection in yeast, the domain comes from the species named
Details: Homo sapiens

Variant | abundance fitness
F3D | -0.701 ± 0.1
H6G | -0.011 ± 0.056
C52Q | -0.574 ± 0.19
G43T | -0.467 ± 0.079
S16K | -0.262 ± 0.11
N7A | -0.213 ± 0.11
V35G | -0.306 ± 0.071
V35R | -0.1 ± 0.081
E9L | -0.277 ± 0.079
D23H | -0.307 ± 0.21
D23F | -0.371 ± 0.1
N2F | -0.324 ± 0.092
N2A | -0.823 ± 0.054
S15Y | 0.068 ± 0.12
H17T | -0.442 ± 0.082
P37I | -0.196 ± 0.13
P37D | 0.07 ± 0.15
K5F | -0.305 ± 0.11
L31K | -0.271 ± 0.11
L49R | 0.185 ± 0.065
H12D | 0.188 ± 0.085
A46D | -0.426 ± 0.23
H47Q | -0.739 ± 0.34
C1F | -0.347 ± 0.22
G8Q | -0.084 ± 0.098
C39K | -0.608 ± 0.11
C36Q | -0.471 ± 0.22

Variants of: B2
Assay: as above
Details: Homo sapiens

Variant | abundance fitness
LPLEERVTHFRDMLLERGVSAFSTWEKELHKIVFDPRYLLLNSEERKQIFEFFVKTR | -0.922 ± 0.25
LPLEERVTHFRDMLLERGVSAFSTWEKELHKIVFDPRYLLLNSEERKQIFEYFVKTR | -0.804 ± 0.22
LPLEERVTHFRDMLLERGVSAFSTWEKELHKIVFDPRYLLLNSEERKQIFEDFVKTR | 0.193 ± 0.15
LPLEERVTHFRDMLLERGVSAFSTWEKELHKIVFDPRYLLLNSEERKQIFECFVKTR | -0.402 ± 0.099
LPLEERVTHFRDMLLERGVSAFSTWEKELHKIVFDPRYLLLNSEERKQIFEVFVKTR | -0.526 ± 0.09
LPLEERVTHFRDMLLERGVSAFSTWEKELHKIVFDPRYLLLNSEERKQIFEMFVKTR | -0.428 ± 0.11
LPLEERVTHFRDMLLERGVSAFSTWEKELHKIVFDPRYLLLNSEERKQIFEAFVKTR | -0.395 ± 0.1
LPLEERVTHFRDMLLERGVSAFSTWEKELHKIVFDPRYLLLNSEERKQIFETFVKTR | -0.33 ± 0.088
LPLEERVTHFRDMLLERGVSAFSTWEKELHKIVFDPRYLLLNSEERKQIFEHFVKTR | -0.426 ± 0.097
LPLEERVTHFRDMLLERGVSAFSTWEKELHKIVFDPRYLLLNSEERKQIFENFVKTR | -0.506 ± 0.19
LPLEERVTHFRDMLLERGVSAFSTWEKELHKIVFDPRYLLLNSEERKQIFELFVKTR | -0.435 ± 0.087
LPLEERVTHFRDMLLERGVSAFSTWEKELHKIVFDPRYLLLNSEERKQIFESFVKTR | -0.151 ± 0.07
LPLEERVTHFRDMLLERGVSAFSTWEKELHKIVFDPRYLLLNSEERKQIFEEFVKTR | 0.114 ± 0.19
LPLEERVTHFRDMLLERGVSAFSTWEKELHKIVFDPRYLLLNSEERKQIFEWFVKTR | -0.621 ± 0.14
LPLEERVTHFRDMLLERGVSAFSTWEKELHKIVFDPRYLLLNSEERKQIFEIFVKTR | -0.592 ± 0.094
LPLEERVTHFRDMLLERGVSAFSTWEKELHKIVFDPRYLLLNSEERKQIFEKFVKTR | -0.238 ± 0.16
LPLEERVTHFRDMLLERGVSAFSTWEKELHKIVFDPRYLLLNSEERKQIFEPFVKTR | -0.618 ± 0.11
LPLEERVTHFRDMLLERGVSAFSTWEKELHKIVFDPRYLLLNSEERKQIFEQFVKAR | 0.035 ± 0.16
LPLEERVTHFRDMLLERGVSAFSTWEKELHKIVFDPRYLLLNSEERKQIFEQFVKSR | -0.017 ± 0.16
LPLEERVTHFRDMLLERGVSAFSTWEKELHKIVFDPRYLLLNSEERKQIFEQFVKVR | -0.477 ± 0.21
LPLEERVTHFRDMLLERGVSAFSTWEKELHKIVFDPRYLLLNSEERKQIFEQFVKIR | -0.034 ± 0.19
LPLEERVTHFRDMLLERGVSAFSTWEKELHKIVFDPRYLLLNSEERKQIFEQFVKCR | -0.214 ± 0.17

Variant | abundance fitness
LPLEERVTHFRDMLLERGVSAFSTWEKELHKIVFDPRYLLLNSEERKQIFEQFVKGR | -0.303 ± 0.089
LPLEERVTHFRDMLLERGVSAFSTWEKELHKIVFDPRYLLLNSEERKQIFEQFVKNR | 0.05 ± 0.092
LPLEERVTHFRDMLLERGVSAFSTWEKELHKIVFDPRYLLLNSEERKQIFEQFVKQR | 0.022 ± 0.12
LPLEERVTHFRDMLLERGVSAFSTWEKELHKIVFDPRYLLLNSEERKQIFEQFVKDR | 0.635 ± 0.27
LPLEERVTHFRDMLLERGVSAFSTWEKELHKIVFDPRYLLLNSEERKQIFEQFVKER | 0.336 ± 0.26
LPLEERVTHFRDMLLERGVSAFSTWEKELHKIVFDPRYLLLNSEERKQIFEQFVKRR | -0.456 ± 0.096
LPLEERVTHFRDMLLERGVSAFSTWEKELHKIVFDPRYLLLNSEERKQIFEQFVKPR | 0.109 ± 0.27
LPLEERVTHFRDMLLERGVSAFSTWEKELHKIVFDPRYLLLNSEERKQIFEQFVKKR | -0.078 ± 0.22
LPLEERVTHFRDMLLERGVSAFSTWEKELHKIVFDPRYLLLNSEERKQIFEQFVKWR | -0.482 ± 0.36
LPLEERVTHFRDMLLERGVSAFSTWEKELHKIVFDPRYLLLNSEERKQIFEQFVKLR | -0.311 ± 0.13
LPLEERVTHFRDMLLERGVSAFSTWEKELHKIVFDPRYLLLNSEERKQIFEQFAKTR | -0.451 ± 0.086
LPLEERVTHFRDMLLERGVSAFSTWEKELHKIVFDPRYLLLNSEERKQIFEQFRKTR | -0.348 ± 0.084
LPLEERVTHFRDMLLERGVSAFSTWEKELHKIVFDPRYLLLNSEERKQIFEQFWKTR | -0.624 ± 0.18
LPLEERVTHFRDMLLERGVSAFSTWEKELHKIVFDPRYLLLNSEERKQIFEQFSKTR | -0.222 ± 0.12
LPLEERVTHFRDMLLERGVSAFSTWEKELHKIVFDPRYLLLNSEERKQIFEQFKKTR | -0.396 ± 0.49
LPLEERVTHFRDMLLERGVSAFSTWEKELHKIVFDPRYLLLNSEERKQIFEQFIKTR | -0.199 ± 0.15
LPLEERVTHFRDMLLERGVSAFSTWEKELHKIVFDPRYLLLNSEERKQIFEQFDKTR | -0.32 ± 0.32
LPLEERVTHFRDMLLERGVSAFSTWEKELHKIVFDPRYLLLNSEERKQIFEQFTKTR | -0.093 ± 0.19
LPLEERVTHFRDMLLERGVSAFSTWEKELHKIVFDPRYLLLNSEERKQIFEQFPKTR | -0.811 ± 0.36
LPLEERVTHFRDMLLERGVSAFSTWEKELHKIVFDPRYLLLNSEERKQIFEQFFKTR | -0.082 ± 0.35
LPLEERVTHFRDMLLERGVSAFSTWEKELHKIVFDPRYLLLNSEERKQIFEQFMKTR | -0.505 ± 0.38
LPLEERVTHFRDMLLERGVSAFSTWEKELHKIVFDPRYLLLNSEERKQIFEQFEKTR | -0.821 ± 0.3

Variant | abundance fitness
LPLEERVTHFRDMLLERGVSAFSTWEKELHKIVFDPRYLLLNSEERKQIFEQFCKTR | -0.303 ± 0.27
LPLEERVTHFRDMLLERGVSAFSTWEKELHKIVFDPRYLLLNSEERKQIFEQFGKTR | -0.632 ± 0.11
LPLEERVTHFRDMLLERGVSAFSTWEKELHKIVFDPRYLLLNSEERKQIFEQTVKTR | -0.964 ± 0.21
LPLEERVTHFRDMLLERGVSAFSTWEKELHKIVFDPRYLLLNSEERKQIFEQEVKTR | -0.964 ± 0.35
LPLEERVTHFRDMLLERGVSAFSTWEKELHKIVFDPRYLLLNSEERKQIFEQCVKTR | -0.828 ± 0.26
LPLEERVTHFRDMLLERGVSAFSTWEKELHKIVFDPRYLLLNSEERKQIFEQWVKTR | -0.05 ± 0.15
LPLEERVTHFRDMLLERGVSAFSTWEKELHKIVFDPRYLLLNSEERKQIFEQAVKTR | -0.949 ± 0.1
LPLEERVTHFRDMLLERGVSAFSTWEKELHKIVFDPRYLLLNSEERKQIFEQLVKTR | -0.747 ± 0.19
LPLEERVTHFRDMLLERGVSAFSTWEKELHKIVFDPRYLLLNSEERKQIFEQSVKTR | -0.718 ± 0.12
LPLEERVTHFRDMLLERGVSAFSTWEKELHKIVFDPRYLLLNSEERKQIFEQVVKTR | -0.797 ± 0.12
LPLEERVTHFRDMLLERGVSAFSTWEKELHKIVFDPRYLLLNSEERKQIFEQHVKTR | -0.466 ± 0.39
LPLEERVTHFRDMLLERGVSAFSTWEKELHKIVFDPRYLLLNSEERKQIFEQGVKTR | -0.368 ± 0.1
LPLEERVTHFRDMLLERGVSAFSTWEKELHKIVFDPRYLLLNSEERKQIFEQYVKTR | 0.15 ± 0.14
LPLEERVTHFRDMLLERGVSAFSTWEKELHKIVFDPRYLLLNSEERKQIFEQRVKTR | -0.837 ± 0.18
LPLEERVTHFRDMLLERGVSAFSTWEKELHKIVFDPRYLLLNSEERKQIFEQFVGTR | -0.278 ± 0.088
LPLEERVTHFRDMLLERGVSAFSTWEKELHKIVFDPRYLLLNSEERKQIFEQFVDTR | -0.514 ± 0.21
LPLEERVTHFRDMLLERGVSAFSTWEKELHKIVFDPRYLLLNSEERKQIFEQFVTTR | 0.212 ± 0.14
LPLEERVTHFRDMLLERGVSAFSTWEKELHKIVFDPRYLLLNSEERKQIFEQFVNTR | -0.267 ± 0.2
LPLEERVTHFRDMLLERGVSAFSTWEKELHKIVFDPRYLLLNSEERKQIFEQFVHTR | -0.218 ± 0.32
LPLEERVTHFRDMLLERGVSAFSTWEKELHKIVFDPRYLLLNSEERKQIFEQFVWTR | -0.543 ± 0.2
LPLEERVTHFRDMLLERGVSAFSTWEKELHKIVFDPRYLLLNSEERKQIFEQFVLTR | -0.124 ± 0.1
LPLEERVTHFRDMLLERGVSAFSTWEKELHKIVFDPRYLLLNSEERKQIFEQFVMTR | 0.06 ± 0.19

Variant | abundance fitness
LPLEERVTHFRDMLLERGVSAFSTWEKELHKIVFDPRYLLLNSEERKQIFEQFVSTR | -0.04 ± 0.11
LPLEERVTHFRDMLLERGVSAFSTWEKELHKIVFDPRYLLLNSEERKQIFEQFVPTR | -1.19 ± 0.5
LPLEERVTHFRDMLLERGVSAFSTWEKELHKIVFDPRYLLLNSEERKQIFEQFVATR | -0.266 ± 0.12
LPLEERVTHFRDMLLERGVSAFSTWEKELHKIVFDPRYLLLNSEERKQIFEQFVQTR | -0.19 ± 0.1
LPLEERVTHFRDMLLERGVSAFSTWEKELHKIVFDPRYLLLNSEERKQIFEQFVYTR | -0.667 ± 0.28
LPLEERVTHFRDMLLERGVSAFSTWEKELHKIVFDPRYLLLNSEERKQIFEQFVETR | 0.209 ± 0.15
LPLEERVTHFRDMLLERGVSAFSTWEKELHKIVFDPRYLLLNSEERKQIFEQFVCTR | -0.382 ± 0.34
LPLEERVTHFRDMLLERGVSAFSTWEKELHKIVFDPRYLLLNSEERKQIFQQFVKTR | -0.255 ± 0.078
LPLEERVTHFRDMLLERGVSAFSTWEKELHKIVFDPRYLLLNSEERKQIFPQFVKTR | -0.929 ± 0.13
LPLEERVTHFRDMLLERGVSAFSTWEKELHKIVFDPRYLLLNSEERKQIFRQFVKTR | -0.594 ± 0.094
LPLEERVTHFRDMLLERGVSAFSTWEKELHKIVFDPRYLLLNSEERKQIFSQFVKTR | -0.28 ± 0.064
LPLEERVTHFRDMLLERGVSAFSTWEKELHKIVFDPRYLLLNSEERKQIFMQFVKTR | -0.413 ± 0.093
LPLEERVTHFRDMLLERGVSAFSTWEKELHKIVFDPRYLLLNSEERKQIFYQFVKTR | -0.375 ± 0.077
LPLEERVTHFRDMLLERGVSAFSTWEKELHKIVFDPRYLLLNSEERKQIFWQFVKTR | -0.766 ± 0.21
LPLEERVTHFRDMLLERGVSAFSTWEKELHKIVFDPRYLLLNSEERKQIFVQFVKTR | -0.669 ± 0.16
LPLEERVTHFRDMLLERGVSAFSTWEKELHKIVFDPRYLLLNSEERKQIFLQFVKTR | -0.522 ± 0.081
LPLEERVTHFRDMLLERGVSAFSTWEKELHKIVFDPRYLLLNSEERKQIFTQFVKTR | -0.281 ± 0.085
LPLEERVTHFRDMLLERGVSAFSTWEKELHKIVFDPRYLLLNSEERKQIFNQFVKTR | -0.147 ± 0.079
LPLEERVTHFRDMLLERGVSAFSTWEKELHKIVFDPRYLLLNSEERKQIFKQFVKTR | -0.278 ± 0.085
